In patent publication US20190374662A1 (published 2019):
Positions count from the first letter of the chain named. In names and notes the source's numbering stands.

T1: CEACAM6 protein on 721.221 cells (human, UniProt P40199 35-142)
T1 construct: also called CD66c
T1 sequence: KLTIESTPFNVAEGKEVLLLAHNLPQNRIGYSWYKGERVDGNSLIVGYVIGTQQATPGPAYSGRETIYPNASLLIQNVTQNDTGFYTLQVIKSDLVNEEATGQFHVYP

T2: CD99-Ig fusion protein (control) (human, UniProt P14209 23-122, limits assumed)
T2 construct: extracellular domain; Control fusion protein produced in COS-7 cells; not shown: human IgG1 (Fc portion)
T2 sequence (looked up): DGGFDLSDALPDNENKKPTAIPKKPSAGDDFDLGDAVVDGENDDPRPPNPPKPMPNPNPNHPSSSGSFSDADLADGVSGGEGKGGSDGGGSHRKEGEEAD

B1: CEACAM1-Ig fusion protein (extracellular portion of CEACAM1 fused to the Fc portion of human IgG1) (Fc fusion)
chain: QLTTESMPFNVAEGKEVLLLVHNLPQQLFGYSWYKGERVDGNRQIVGYAIGTQQATPGPANSGRETIYPNASLLIQNVTQNDTGFYTLQVIKSDLVNEEATGQFHVYP
notes: also called CCM1-Ig; soluble CEACAM1-Ig; not shown: Fc portion of human IgG1
B2: CCM6-L44Q (CEACAM6 with 44L changed to 44Q) (receptor)
chain: T1 sequence with L44Q
notes: also called CEACAM6-L44Q
B3: CCM6-S43R (CEACAM6 with 43S changed to 43R) (receptor)
chain: T1 sequence with S43R
notes: also called CEACAM6-S43R
B4: CCM6-SL43,44RQ (CEACAM6 with R and Q at positions 43 and 44 instead of S and L) (receptor)
chain: T1 sequence with S43R, L44Q
notes: also called CEACAM6-SL43,44RQ
B5: CCM1-R43A (CEACAM1 with 43R changed to 43A) (receptor)
chain: B1 chain with R43A
notes: The expression level was lower than that of the other transfectants; also called CEACAM1-R43A
B6: CCM1-Q44L (CEACAM1 with 44Q changed to 44L) (receptor)
chain: B1 chain with Q44L
notes: also called CEACAM1-Q44L
B7: CCM1-RQ43,44SL (CEACAM1 with S and L at positions 43 and 44 instead of R and Q) (receptor)
chain: B1 chain with R43S, Q44L
notes: also called CEACAM1-RQ43,44SL

Columns and labels:
Experiment in all cases: flow cytometry on stably transfected 721.221 cells
[1] = target: T1, CEACAM6 protein on 721.221 cells
[2] = target: B1
[3] = target: T2, CD99-Ig fusion protein (control)

B1
binding result [1]: no binding

B2
binding result [2]: no binding

B3
binding result [2]: no binding

B4
binding result [3]: no binding

B5
binding result [2]: no binding

B6
binding result [2]: no binding

B7
binding result [2]: no binding
binding result [3]: no binding
